# Patent US20220403025A1
# Biological target: L1 (DV1-GV4) antigen: soluble heterodimeric γδ TCR in leucine zipper format (TRDV1/TRGV4) (human)
# Test: ELISA (DELFIA, time-resolved fluorometry) on antigen L1, titration of the mAb
# L1 (DV1-GV4) antigen: soluble heterodimeric γδ TCR in leucine zipper format (TRDV1/TRGV4) (human), sequence (main, as listed by the source): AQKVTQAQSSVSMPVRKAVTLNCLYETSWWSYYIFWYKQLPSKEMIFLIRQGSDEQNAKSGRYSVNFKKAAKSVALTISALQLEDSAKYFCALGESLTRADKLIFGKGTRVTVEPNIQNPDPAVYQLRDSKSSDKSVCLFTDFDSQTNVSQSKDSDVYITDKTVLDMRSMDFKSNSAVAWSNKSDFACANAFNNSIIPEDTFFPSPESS
row,Binder,EC50 (read off the curve) [µg/mL]
1,"1245_P02_G04 (IgG1, made in HEK) (antibody, V domains shown) VH: QVQLQQSGPGLVKPSQTLSLTCAISGDSVSSKSAAWNWIRQSPSRGLEWLGRTYYRSKWSTDYAASVKSRITINPDTSKNQLSLQLNSVTPEDTAVYYCARTWSGYVDVWGQGTLVTVSS VL: DIQMTQSPPALSASVGDRVTITCRASQDINDWLAWYQHKPGKAPKLLIYDASSLESGVPSRFSGSGSGTEFTLTISSLQPDDFATYYCQQSYSTPQVTFGQGTRLEIK",0.07
2,"AD3 (variant G04, made in CHO) (antibody, V domains shown) VH: EVQLQQSGPGLVKPSQTLSLTCAISGDSVSSKSAAWNWIRQSPSRGLEWLGRTYYRSKWSTDYAASVKSRITINPDTSKNQLSLQLNSVTPEDTAVYYCARTWSGYVDVWGQGTLVTVSS VL: DIQMTQSPPALSASVGDRVTITCRASQDINDWLAWYQHKPGKAPKLLIYDASSLESGVPSRFSGSGSGTEFTLTISSLQPDDFATYYCQQSYSTPQVTFGQGTRLEIK",0.07
3,"AD4 (hinge modified AD3, made in CHO) (antibody, V domains shown) VH: EVQLQQSGPGLVKPSQTLSLTCAISGDSVSSKSAAWNWIRQSPSRGLEWLGRTYYRSKWSTDYAASVKSRITINPDTSKNQLSLQLNSVTPEDTAVYYCARTWSGYVDVWGQGTLVTVSS VL: DIQMTQSPPALSASVGDRVTITCRASQDINDWLAWYQHKPGKAPKLLIYDASSLESGVPSRFSGSGSGTEFTLTISSLQPDDFATYYCQQSYSTPQVTFGQGTRLEIK",0.07
4,"AD3gly (defucosylated AD3 made in engineered CHO) (antibody, V domains shown) VH: EVQLQQSGPGLVKPSQTLSLTCAISGDSVSSKSAAWNWIRQSPSRGLEWLGRTYYRSKWSTDYAASVKSRITINPDTSKNQLSLQLNSVTPEDTAVYYCARTWSGYVDVWGQGTLVTVSS VL: DIQMTQSPPALSASVGDRVTITCRASQDINDWLAWYQHKPGKAPKLLIYDASSLESGVPSRFSGSGSGTEFTLTISSLQPDDFATYYCQQSYSTPQVTFGQGTRLEIK",0.07

# Biological target: L1 (DV1-GV4) antigen: soluble heterodimeric γδ TCR in leucine zipper format (TRDV1/TRGV4) (human)
# Test: DELFIA affinity ranking with 100 nM biotinylated L1
row,Binder,"DELFIA signal, 100 nM L1"
1,1252_P01_C08 (scFv) (scFv) scFv: EVQLLESGGGLVQPGRSLRLSCAASGFTVSSNYMSWVRQAPGKGLEWVSVIYSGGSTYYADSVKGRFTISRDNSKNTLYLQMNSLRAEDTAVYYCASPIELGAFDIWGQGTLVTVSSGGGGSGGGGSGGGASSYELTQPPSVSVAPGKTARITCGGNNIGSQSVHWYQQKPGQAPMLVIYYDSDRPSGIPERFSGSNSGNTATLTISRVEAGDEADYYCQVWDSSSDHVVFGGGTKLTVL,1980
2,1245_P01_E07 (scFv) (scFv) scFv: QVQLVESGGGLVKPGGSLRLSCAASGFTFSDYYMSWIRQAPGKGLEWVSYISSSGSTIYYADSVKGRFTISRDNAKNSLYLQMNSLRAEDTAVYYCARVDYADAFDIWGQGTLVTVSSGGGGSGGGGSGGGASDIQMTQSPSSLSASVGDRVTIACRAGQSIGTYLNWYQQKPGKAPKLLIYVASSLQSGVPSRFSGSGSGTEFTLTISSLQPEDFATYYCQQSYSTLLTFGRGTKVEIK,163000
3,1251_P02_G10 (scFv) (scFv) scFv: EVQLVESGGGLVQPGGSLRLSCAASGFTFSDYYMSWIRQAPGKGLEWVSYISSSGSTIYYADSVKGRFTISRDNAKNSLYLQMNSLRAEDTAVYYCARHSWNDAFDIWGRGTLVTVSSGGGGSGGGGSGGGASDIQMTQSPSSLSASVGDRVTITCRASQSISSHLNWYQQKPGKAPKLLIYAASSLQSGVPSRFSASGSGTDFTLTISSLQPEDFATYYCQQSYSTLLTFGGGTKVEIK,17100
4,1141_P01_E01 (scFv) (scFv) scFv: QVQLVQSGAEVKKPGESLKISCKGSGYSFTSYWIGWVRQMPGKGLEWMGIIYPGDSDTRYSPSFQGQVTISADKSISTAYLQWSSLKASDTAMYYCARHQVDTRTADYWGQGTLVTVSSGGGGSGGGGSGGGASQSALTQPASVSGSPGQSVTISCTGTRSDVGGYNYVSWYQHHPGKAPKLMIYEVSNRPSGVSNRFSGSKSGNTASLTISGLQAEDEADYYCSSYTSTSTLVFGGGTKLTVL,137000
5,1245_P02_F07 (scFv) (scFv) scFv: QVQLQQSGPGLVKPSQTLSLTCVISGDSVSSNSAAWNWIRQSPSRGLEWLGRTYYRSKWYNDYAVSVKSRITINPDTSKNQFSLQLNSVTPEDTAVYYCARDYYYSMDVWGQGTMVTVSSGGGGSGGGGSGGGASDIQMTQSPSTLSASVGDRVTITCRASQSISSWLAWYQQKPGKAPKLLIYDASSLESGVPLRFSGSGSGTEFTLTISSLQPDDFATYYCQQSHSHPPTFGPGTKVDIK,10400
6,1139_P01_E04 (scFv) (scFv) scFv: QVQLQQSGPGLVKPSQTLSLTCAISGDSVSSNSAAWNWIRQSPSRGLEWLGRTYYRSKWYNDYAVSVRSRITINPDTSKNQFSLQLNSVTPEDTAVYYCARSWNDAFDIWGQGTTVTVSSGGGGSGGGGSGGGASDIVMTQSPSTLSASIGDRVTITCRAGQSISTWLAWYQQKPGKAPKLLIYDASSLESGVPLRFSGSGSGTDFTLTISSLQPEDFATYYCQQSYSTPLTFGGGTKVEIK,23800
7,1245_P02_G04 (scFv) (scFv) scFv: QVQLQQSGPGLVKPSQTLSLTCAISGDSVSSKSAAWNWIRQSPSRGLEWLGRTYYRSKWSTDYAASVKSRITINPDTSKNQLSLQLNSVTPEDTAVYYCARTWSGYVDVWGQGTLVTVSSGGGGSGGGGSGGGASDIQMTQSPPALSASVGDRVTITCRASQDINDWLAWYQHKPGKAPKLLIYDASSLESGVPSRFSGSGSGTEFTLTISSLQPDDFATYYCQQSYSTPQVTFGQGTRLEIK,5900
8,1245_P01_G09 (scFv) (scFv) scFv: QVQLQQSGPGLVKPSQTLSLTCAISGDSVSSNSAAWNWIRQSPSRGLEWLGRTYYGSKWYNEYALSVKSRIIINPDTSKNQFSLQLNSVTPEDTAVYYCARDYYYSMDVWGQGTLVTVSSGGGGSGGGGSGGGASDIVMTQSPSTLSASIGDRVTITCRAGQSISTWLAWYQQKPGKAPKLLIYDASSLESGVPLRFSGSGSGTEFTLAISSLQPDDFATYYCQQSYSTPVTFGQGTKVEIK,18400
9,1251_P02_C05 (scFv) (scFv) scFv: EVQLLESGGGLVQPGGSLRLSCAASGFTFSSYAMSWVRQAPGKGLEWVSAISGGGGTTYSSDSVKGRFTISRDNSKNTLYLQMNSLRAEDTAVYYCARDSGVAFDIWGQGTLVTVSSGGGGSGGGGSGGGASDIQMTQSPSFLSASVGDRVTITCRASQNIRTWLAWYQQKPGRAPKLLIYDASSLESGVPSRFSGSGSGTDFTLTISSLQPEDFATYYCQQFKRYPPTFGLGTKVEIK,65300

# Biological target: Vδ1 γδ T cell receptor on skin-derived γδ T cells (human)
# Test: cell-based or functional assay
row,Binder,TCR downregulation (EC50 µg/ml - 3 donors) [µg/mL]
1,"1251_P02_G10 (IgG1) (antibody, V domains shown) VH: EVQLVESGGGLVQPGGSLRLSCAASGFTFSDYYMSWIRQAPGKGLEWVSYISSSGSTIYYADSVKGRFTISRDNAKNSLYLQMNSLRAEDTAVYYCARHSWNDAFDIWGRGTLVTVSS VL: DIQMTQSPSSLSASVGDRVTITCRASQSISSHLNWYQQKPGKAPKLLIYAASSLQSGVPSRFSASGSGTDFTLTISSLQPEDFATYYCQQSYSTLLTFGGGTKVEIKR",0.849

# Biological target: L1 (DV1-GV4) antigen: soluble heterodimeric γδ TCR in leucine zipper format (TRDV1/TRGV4) (human)
# Test: SPR (MASS-2), IgG captured via protein G, L1 as analyte, steady-state 1:1 fit
row,Binder,Kd [nM]
1,"1251_P02_G10 (IgG1) (antibody, V domains shown) VH: EVQLVESGGGLVQPGGSLRLSCAASGFTFSDYYMSWIRQAPGKGLEWVSYISSSGSTIYYADSVKGRFTISRDNAKNSLYLQMNSLRAEDTAVYYCARHSWNDAFDIWGRGTLVTVSS VL: DIQMTQSPSSLSASVGDRVTITCRASQSISSHLNWYQQKPGKAPKLLIYAASSLQSGVPSRFSASGSGTDFTLTISSLQPEDFATYYCQQSYSTLLTFGGGTKVEIKR",829
